Measurements: paper PMC4666417

Biological target: eEF1A1 (eukaryotic elongation factor 1 subunit A1), MYC/DDK-tagged (human) (UniProt P68104)
Test: BLI; biotinylated eEF1 subunit (eEF1A1, eEF1B, eEF1D or eEF1G) immobilised on streptavidin biosensor; RT subunits, RT heterodimer, Gag or RTp66 mutants as analytes at 90, 30 and 10 nM (mutants at 90 nM); kinetic buffer 1 mM phosphate, 15 mM NaCl, 0.002% Tween-20, 0.1 mg/ml gelatine, 1000 rpm, OctetRed

eEF1A1 (eukaryotic elongation factor 1 subunit A1), MYC/DDK-tagged (human), sequence (P68104 whole entry): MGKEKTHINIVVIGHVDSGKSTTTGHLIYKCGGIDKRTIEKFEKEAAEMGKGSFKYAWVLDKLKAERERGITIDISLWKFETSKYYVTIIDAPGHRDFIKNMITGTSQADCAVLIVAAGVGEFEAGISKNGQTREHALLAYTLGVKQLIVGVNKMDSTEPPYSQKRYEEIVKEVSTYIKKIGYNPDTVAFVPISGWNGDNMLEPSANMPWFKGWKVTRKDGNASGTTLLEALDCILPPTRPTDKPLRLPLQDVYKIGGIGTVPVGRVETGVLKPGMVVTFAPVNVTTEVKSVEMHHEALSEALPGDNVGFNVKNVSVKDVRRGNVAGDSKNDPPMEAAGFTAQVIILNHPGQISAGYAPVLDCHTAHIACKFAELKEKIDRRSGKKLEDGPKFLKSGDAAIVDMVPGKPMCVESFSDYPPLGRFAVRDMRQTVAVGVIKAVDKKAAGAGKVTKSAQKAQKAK

| Substance | Kd [nM] | koff [s⁻¹] | kon [M⁻¹ s⁻¹] |
| --- | --- | --- | --- |
| HIV-1 RT p51, 6xHis-tagged, purified (from UniProt P04585 588-1027) (natural protein; other documents disagree on this pair) | 4.13 | 0.000185 | 44800 |
| HIV-1 RT p66/p51 heterodimer, purified (from UniProt P04585 588-1147; P04585 588-1027) (complex) | 3.75 | 0.000207 | 55200 |
